These results are taken from doi:10.1101/2020.01.12.903617, “The peptide sensor motif stabilizes the outward-facing conformation of TmrAB” (bioRxiv, 2020).

Experiment [1] addresses T1, TmrA C416S/L290C (chain of the double cysteine mutant of cysteine-less WT TmrAB) (Thermus thermophilus, UniProt Q72J05 1-600, C416S | L290C).
T1 construct: TmrA, Thermus thermophilus, the chain of TmrAB with the canonical Walker B motif; Cysteine-less template made by GenScript; co-expressed with the TmrB chain; also called C416S^TmrA/L290C^TmrA
T1 sequence: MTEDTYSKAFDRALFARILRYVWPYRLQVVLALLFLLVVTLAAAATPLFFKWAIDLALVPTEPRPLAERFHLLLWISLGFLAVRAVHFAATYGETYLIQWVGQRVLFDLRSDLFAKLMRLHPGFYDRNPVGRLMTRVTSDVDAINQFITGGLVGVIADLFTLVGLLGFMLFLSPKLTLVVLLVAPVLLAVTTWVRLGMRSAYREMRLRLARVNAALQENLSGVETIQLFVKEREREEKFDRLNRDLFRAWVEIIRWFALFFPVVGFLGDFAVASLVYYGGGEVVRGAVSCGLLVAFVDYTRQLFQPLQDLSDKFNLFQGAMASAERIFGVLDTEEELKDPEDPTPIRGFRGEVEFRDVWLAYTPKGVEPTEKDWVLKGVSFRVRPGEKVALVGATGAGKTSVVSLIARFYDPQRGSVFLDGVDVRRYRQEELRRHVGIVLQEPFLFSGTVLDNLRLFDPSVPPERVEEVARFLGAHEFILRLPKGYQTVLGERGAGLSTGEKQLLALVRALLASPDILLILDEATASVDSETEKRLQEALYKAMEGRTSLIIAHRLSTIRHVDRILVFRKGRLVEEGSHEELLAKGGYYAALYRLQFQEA
Description: cross-linking; disulfide cross-linking of engineered cysteines: 1 uM TmrAB double cysteine mutants in SEC buffer, 0.5 mM copper phenanthroline, 68°C, without or with 5 mM ATP, 10 mM MgCl2 and/or 8 mM sodium orthovanadate; SDS-PAGE, ~150 kDa band of the cross-linked dimer. The following applies: both partners purified.

Experiment [2] addresses T2, TmrA G131A/C416S/L290C (chain of the double cysteine mutant of G131A^TmrA TmrAB) (Thermus thermophilus, UniProt Q72J05 1-600, G131A | C416S | L290C).
T2 construct: TmrA, Thermus thermophilus, the chain of TmrAB with the canonical Walker B motif; Cysteine-less template made by GenScript; co-expressed with TmrB V275C; also called PSM glycine mutant
T2 sequence: T1 sequence with G131A
The experiment is described as above. The following applies: both partners purified.

Positions count from the first letter of the chain named. Names and notes keep the numbering of the source.

B1: TmrB G116A/V275C (chain of the double cysteine mutant of G116A^TmrB TmrAB) (natural protein, Thermus thermophilus)
chain: MTGRSAAPLLRRLWPYVGRYRWRYLWAVLAGLVSIFFFVLTPYFLRLAVDAVQAGRGFGVYALAIVASAALSGLLSYAMRRLAVVASRQVEYDLRRDLLHHLLTLDRDFYHKHRVADLMNRLNTDLSAVREMVGPGILMGSRLSFLVLLAFLSMYAVNARLAFYLTLILPGIFLAMRFLLRLIDRRYREAQEVFDRISTLAQEAFSGIRVVKGYALERRMVAWFQDLNRLYVEKSLALARVEGPLHALLGFLMGFAFLTVLWAGGAMVVRGELSCGELVQFNAYLAQLTWPILGLGWVMALYQRGLTSLRRLFELLDEKPAIRDEDPLPLALEDLSGEVRFEGVGLKRDGRWLLRGLTLTIPEGMTLGITGRTGSGKSLLAALVPRLLDPSEGRVYVGGHEARRIPLAVLRKAVGVAPQEPFLFSETILENIAFGLDEVDRERVEWAARLAGIHEEILAFPKGYETVLGERGITLSGGQRQRVALARALAKRPKILILDDALSAVDAETEARILQGLKTVLGKQTTLLISHRTAALRHADWIIVLDGGRIVEEGTHESLLQAGGLYAEMDRLQKEVEA
notes: TmrB, Thermus thermophilus, the chain of TmrAB with the non-canonical Walker B motif; Co-expressed with TmrA C416S/L290C; The cloning paragraph prints G116A^TmrA, all other places G116A^TmrB; also called PSM glycine mutant
For the molecule B1, in experiment [1], the binding result was “binds”.

B2: TmrB V275C (chain of the double cysteine mutant of cysteine-less WT TmrAB) (natural protein, Thermus thermophilus)
chain: B1 chain with A116G
notes: TmrB, Thermus thermophilus, the chain of TmrAB with the non-canonical Walker B motif; Co-expressed with the TmrA chain; also called V275C^TmrB
Regarding B2, the binding result in experiment [1] and in experiment [2] was “binds” throughout.
